# How the values were obtained:
# [1] = target: microtubules (bovine tubulin, Taxol-stabilised) (bovine) (UniProt Q6B856); assay: optical trapping, unloaded single molecule bead assay with video tracking
# [2] = target: subtilisin-digested microtubules (E-hook removed) (bovine) (UniProt Q6B856); assay: optical trapping, rupture assay
# [3] = target: microtubules (bovine tubulin, Taxol-stabilised) (bovine) (UniProt Q6B856); assay: optical trapping, rupture assay
# UniProt Q6B856, sequence (Q6B856 whole entry, looked up): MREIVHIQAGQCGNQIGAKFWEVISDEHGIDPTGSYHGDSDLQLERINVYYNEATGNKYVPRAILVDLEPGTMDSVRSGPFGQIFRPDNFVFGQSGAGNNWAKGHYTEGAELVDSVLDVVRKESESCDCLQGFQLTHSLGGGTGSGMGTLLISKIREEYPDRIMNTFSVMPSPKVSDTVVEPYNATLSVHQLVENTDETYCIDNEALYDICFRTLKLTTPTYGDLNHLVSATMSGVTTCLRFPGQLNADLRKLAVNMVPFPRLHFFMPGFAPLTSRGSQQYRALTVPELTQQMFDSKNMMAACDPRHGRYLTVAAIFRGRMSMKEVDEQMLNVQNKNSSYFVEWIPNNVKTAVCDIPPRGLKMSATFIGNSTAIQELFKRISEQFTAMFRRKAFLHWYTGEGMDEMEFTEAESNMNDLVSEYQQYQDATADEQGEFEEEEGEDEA
percent of beads binding [1],bond lifetime (single Gaussian) [2],"bond lifetime (double Gaussian, first population) [3]","bond lifetime (double Gaussian, second population) [3]",force at rupture (first population) [3],force at rupture (second population) [3],lifetime time constant k^-1 (single exponential fit) [3],Binder
11%,,,,,,,FL-HSET (full-length kinesin-14 HSET/KIFC1) (natural protein) MDPQRSPLLEVKGNIELKRPLIKAPSQLPLSGSRLKRRPDQMEDGLEPEKKRTRGLGATTKITTSHPRVPSLTTVPQTQGQTTAQKVSKKTGPRCSTAIATGLKNQKPVPAVPVQKSGTSGVPPMAGGKKPSKRPAWDLKGQLCDLNAELKRCRERTQTLDQENQQLQDQLRDAQQQVKALGTERTTLEGHLAKVQAQAEQGQQELKNLRACVLELEERLSTQEGLVQELQKKQVELQEERRGLMSQLEEKERRLQTSEAALSSSQAEVASLRQETVAQAALLTEREERLHGLEMERRRLHNQLQELKGNIRVFCRVRPVLPGEPTPPPGLLLFPSGPGGPSDPPTRLSLSRSDERRGTLSGAPAPPTRHDFSFDRVFPPGSGQDEVFEEIAMLVQSALDGYPVCIFAYGQTGSGKTFTMEGGPGGDPQLEGLIPRALRHLFSVAQELSGQGWTYSFVASYVEIYNETVRDLLATGTRKGQGGECEIRRAGPGSEELTVTNARYVPVSCEKEVDALLHLARQNRAVARTAQNERSSRSHSVFQLQISGEHSSRGLQCGAPLSLVDLAGSERLDPGLALGPGERERLRETQAINSSLSTLGLVIMALSNKESHVPYRNSKLTYLLQNSLGGSAKMLMFVNISPLEENVSESLNSLRFASKVNQCVIGTAQANRK
,0.22 s,0.29 s,1 s,2.1 pN,5.6 pN,0.23 s,"HSET-ΔM (no motor; EGFP-HSET aa 1-304, tail-stalk) (domain or fragment) MDPQRSPLLEVKGNIELKRPLIKAPSQLPLSGSRLKRRPDQMEDGLEPEKKRTRGLGATTKITTSHPRVPSLTTVPQTQGQTTAQKVSKKTGPRCSTAIATGLKNQKPVPAVPVQKSGTSGVPPMAGGKKPSKRPAWDLKGQLCDLNAELKRCRERTQTLDQENQQLQDQLRDAQQQVKALGTERTTLEGHLAKVQAQAEQGQQELKNLRACVLELEERLSTQEGLVQELQKKQVELQEERRGLMSQLEEKERRLQTSEAALSSSQAEVASLRQETVAQAALLTEREERLHGLEMERRRLHNQL"
